Laboratory results as given in publication PMC10397247.

What was measured:
4H918-bA = target: T1, 4H918-bA; assay: two-hybrid library CCNG1;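 also: natural log of median RNA to DNA barcode read ratio; higher means stronger binding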
T1 chain: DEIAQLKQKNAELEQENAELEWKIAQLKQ

4H953-bA = target: T2, 4H953-bA; assay: two-hybrid library CCNG1;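 also: natural log of median RNA to DNA barcode read ratio; higher means stronger binding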
T2 chain: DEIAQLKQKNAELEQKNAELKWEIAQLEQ

4H967-bA = target: T3, 4H967-bA; assay: two-hybrid library CCNG1;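 also: natural log of median RNA to DNA barcode read ratio; higher means stronger binding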
T3 chain: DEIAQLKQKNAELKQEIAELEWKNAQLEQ

4H968-bA = target: T4, 4H968-bA; assay: two-hybrid library CCNG1;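 also: natural log of median RNA to DNA barcode read ratio; higher means stronger binding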
T4 chain: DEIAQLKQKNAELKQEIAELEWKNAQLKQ

4H971-AA = target: T5, 4H971-AA; assay: two-hybrid library CCmax; details: mean of both orientations;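 also: natural log of median RNA to DNA barcode read ratio; higher means stronger binding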
T5 chain: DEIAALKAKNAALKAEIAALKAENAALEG

4H3709-AA = target: T6, 4H3709-AA; assay: two-hybrid library CCmax;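 also: natural log of median RNA to DNA barcode read ratio; higher means stronger binding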
T6 chain: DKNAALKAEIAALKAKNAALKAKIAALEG

4H656-AA = target: T7, 4H656-AA; assay: two-hybrid library CCmax; details: mean of both orientations
T7 chain: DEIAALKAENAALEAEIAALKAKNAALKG

4H675-AA = target: T8, 4H675-AA; assay: two-hybrid library CCmax; details: mean of both orientations
T8 chain: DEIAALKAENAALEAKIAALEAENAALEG

4H3939-AA = target: T9, 4H3939-AA; assay: two-hybrid library CCmax; details: mean of both orientations
T9 chain: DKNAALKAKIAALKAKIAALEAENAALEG

4H391-AA = target: T10, 4H391-AA; assay: two-hybrid library CCmax; details: mean of both orientations
T10 chain: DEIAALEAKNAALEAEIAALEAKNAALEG

4H497-AA = target: T11, 4H497-AA; assay: two-hybrid library CCmax; details: mean of both orientations
T11 chain: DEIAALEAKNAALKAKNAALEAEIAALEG

4H478-AA = target: T12, 4H478-AA; assay: two-hybrid library CCmax; details: mean of both orientations
T12 chain: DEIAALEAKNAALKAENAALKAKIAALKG

4H428-AA = target: T13, 4H428-AA; assay: two-hybrid library CCmax; details: mean of both orientations
T13 chain: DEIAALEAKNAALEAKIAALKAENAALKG

4H3920-AA = target: T14, 4H3920-AA; assay: two-hybrid library CCmax; details: mean of both orientations
T14 chain: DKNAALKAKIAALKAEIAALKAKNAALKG

APC9182-AA = target: T15, APC9182-AA; assay: two-hybrid library CCmax; details: mean of both orientations
T15 chain: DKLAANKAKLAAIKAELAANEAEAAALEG

APC9291-AA = target: T16, APC9291-AA; assay: two-hybrid library CCmax; details: mean of both orientations
T16 chain: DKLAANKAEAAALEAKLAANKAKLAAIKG

APC9141-AA = target: T17, APC9141-AA; assay: two-hybrid library CCmax
T17 chain: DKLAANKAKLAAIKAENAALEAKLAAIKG

APC9806-AA = target: T18, APC9806-AA; assay: two-hybrid library CCmax; details: mean of both orientations
T18 chain: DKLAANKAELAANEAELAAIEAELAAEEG

4H464-AA = target: T19, 4H464-AA; assay: two-hybrid library CCmax; details: mean of both orientations
T19 chain: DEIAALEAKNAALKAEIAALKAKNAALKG

4H63-AA = target: T20, 4H63-AA; assay: two-hybrid library CCmax; details: mean of both orientations
T20 chain: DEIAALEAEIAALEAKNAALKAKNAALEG

4H3969-AA = target: T21, 4H3969-AA; assay: two-hybrid library CCmax
T21 chain: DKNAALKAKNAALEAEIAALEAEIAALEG

4H483-AA = target: T22, 4H483-AA; assay: two-hybrid library CCmax; details: mean of both orientations
T22 chain: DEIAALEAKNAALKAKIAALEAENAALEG

4H446-AA = target: T23, 4H446-AA; assay: two-hybrid library CCmax; details: mean of both orientations
T23 chain: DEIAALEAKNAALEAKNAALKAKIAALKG

4H891-AA = target: T24, 4H891-AA; assay: two-hybrid library CCmax; details: mean of both orientations
T24 chain: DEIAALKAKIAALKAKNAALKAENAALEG

4H485-AA = target: T25, 4H485-AA; assay: two-hybrid library CCmax; details: mean of both orientations
T25 chain: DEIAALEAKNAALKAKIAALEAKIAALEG

4H3590-AA = target: T26, 4H3590-AA; assay: two-hybrid library CCmax; details: mean of both orientations
T26 chain: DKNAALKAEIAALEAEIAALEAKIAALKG

4H310-AA = target: T27, 4H310-AA; assay: two-hybrid library CCmax
T27 chain: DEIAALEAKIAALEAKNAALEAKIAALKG

4H930-AA = target: T28, 4H930-AA; assay: two-hybrid library CCmax; details: mean of both orientations
T28 chain: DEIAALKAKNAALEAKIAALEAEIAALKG

4H3865-AA = target: T29, 4H3865-AA; assay: two-hybrid library CCmax; details: mean of both orientations
T29 chain: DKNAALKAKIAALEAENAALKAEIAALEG

4H3165-AA = target: T30, 4H3165-AA; assay: two-hybrid library CCmax; details: mean of both orientations
T30 chain: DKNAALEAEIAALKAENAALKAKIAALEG

4H629-AA = target: T31, 4H629-AA; assay: two-hybrid library CCmax; details: mean of both orientations
T31 chain: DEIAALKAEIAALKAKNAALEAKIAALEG

4H3130-AA = target: T32, 4H3130-AA; assay: two-hybrid library CCmax; details: mean of both orientations
T32 chain: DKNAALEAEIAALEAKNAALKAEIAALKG

4H797-AA = target: T33, 4H797-AA; assay: two-hybrid library CCmax; details: mean of both orientations
T33 chain: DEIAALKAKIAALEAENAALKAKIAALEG

4H3697-AA = target: T34, 4H3697-AA; assay: two-hybrid library CCmax; details: mean of both orientations
T34 chain: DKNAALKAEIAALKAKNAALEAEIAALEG

4H3120-AA = target: T35, 4H3120-AA; assay: two-hybrid library CCmax; details: mean of both orientations
T35 chain: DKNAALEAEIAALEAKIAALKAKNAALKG

4H536-AA = target: T36, 4H536-AA; assay: two-hybrid library CCmax; details: mean of both orientations
T36 chain: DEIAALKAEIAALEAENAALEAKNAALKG

4H909-AA = target: T37, 4H909-AA; assay: two-hybrid library CCmax; details: mean of both orientations
T37 chain: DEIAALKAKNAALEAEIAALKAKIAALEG

4H745-AA = target: T38, 4H745-AA; assay: two-hybrid library CCmax; details: mean of both orientations
T38 chain: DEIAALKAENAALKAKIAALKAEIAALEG

4H850-AA = target: T39, 4H850-AA; assay: two-hybrid library CCmax; details: mean of both orientations
T39 chain: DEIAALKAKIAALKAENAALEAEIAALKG

4H94-AA = target: T40, 4H94-AA; assay: two-hybrid library CCmax; details: mean of both orientations
T40 chain: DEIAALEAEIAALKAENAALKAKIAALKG

4H3410-AA = target: T41, 4H3410-AA; assay: two-hybrid library CCmax; details: mean of both orientations
T41 chain: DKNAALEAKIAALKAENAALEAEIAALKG

4H3381-AA = target: T42, 4H3381-AA; assay: two-hybrid library CCmax; details: mean of both orientations
T42 chain: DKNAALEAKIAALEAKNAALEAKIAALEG

4H3753-AA = target: T43, 4H3753-AA; assay: two-hybrid library CCmax; details: mean of both orientations
T43 chain: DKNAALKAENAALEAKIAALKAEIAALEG

4H458-AA = target: T44, 4H458-AA; assay: two-hybrid library CCmax; details: mean of both orientations
T44 chain: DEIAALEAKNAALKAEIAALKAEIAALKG

4H3395-AA = target: T45, 4H3395-AA; assay: two-hybrid library CCmax; details: mean of both orientations
T45 chain: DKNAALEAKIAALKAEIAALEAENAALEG

4H710-AA = target: T46, 4H710-AA; assay: two-hybrid library CCmax; details: mean of both orientations
T46 chain: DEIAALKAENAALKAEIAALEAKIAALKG

4H570-AA = target: T47, 4H570-AA; assay: two-hybrid library CCmax; details: mean of both orientations
T47 chain: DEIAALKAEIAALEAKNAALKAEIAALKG

B1: 4H918-bA (peptide)
chain: DEIAQLKQKNAELEQENAELEWKIAQLKQ
interaction score (4H918-bA): 0.453 | interaction score (4H953-bA): 1.53 | interaction score (4H967-bA): -0.684 | interaction score (4H968-bA): -0.293

B2: 4H3709-AA (peptide)
chain: DKNAALKAEIAALKAKNAALKAKIAALEG
interaction score (4H971-AA): -1.69 | interaction score (4H3709-AA): 0.066 | interaction score (4H656-AA): 0.489 | interaction score (4H675-AA): 1.6 | interaction score (4H3939-AA): -2.03 | interaction score (4H391-AA): -1.04 | interaction score (4H497-AA): -1.73 | interaction score (4H478-AA): -0.647 | interaction score (4H428-AA): -2.58 | interaction score (4H3920-AA): -1.81

B3: APC9141-AA (peptide)
chain: DKLAANKAKLAAIKAENAALEAKLAAIKG
interaction score (APC9182-AA): -1.82 | interaction score (APC9291-AA): -1.86 | interaction score (APC9141-AA): -2.08 | interaction score (APC9806-AA): -1.67

B4: 4H3969-AA (peptide)
chain: DKNAALKAKNAALEAEIAALEAEIAALEG
interaction score (4H464-AA): -0.91 | interaction score (4H63-AA): -1.93 | interaction score (4H3969-AA): -1.61 | interaction score (4H483-AA): -1.99 | interaction score (4H446-AA): 1.05

B5: 4H310-AA (peptide)
chain: DEIAALEAKIAALEAKNAALEAKIAALKG
interaction score (4H891-AA): -0.168 | interaction score (4H485-AA): -0.778 | interaction score (4H3590-AA): -0.923 | interaction score (4H310-AA): 1.89 | interaction score (4H930-AA): -1.11 | interaction score (4H3865-AA): 1.13 | interaction score (4H3165-AA): -1.5 | interaction score (4H629-AA): -0.767 | interaction score (4H3130-AA): -0.0638 | interaction score (4H797-AA): -0.563 | interaction score (4H3697-AA): 0.375 | interaction score (4H3120-AA): -1.43 | interaction score (4H536-AA): -0.922 | interaction score (4H909-AA): -1.39 | interaction score (4H745-AA): -0.998 | interaction score (4H850-AA): 1.33 | interaction score (4H94-AA): -0.904 | interaction score (4H3410-AA): -0.251 | interaction score (4H3381-AA): 0.757 | interaction score (4H3753-AA): -1.8 | interaction score (4H458-AA): 1.7 | interaction score (4H3395-AA): -1.03 | interaction score (4H710-AA): -0.577 | interaction score (4H570-AA): 1.97

B6: 4H968-bA (peptide)
chain: DEIAQLKQKNAELKQEIAELEWKNAQLKQ
interaction score (4H968-bA): -1.46
